Measured values: patent publication US20110286981A1 (ZEALAND PHARMA A S, published 2011)

Columns and labels:
human glucagon receptor = human glucagon receptor (human, UniProt P47871 26-477); assay: cell-based or functional assay
[1] = target: human glucagon-like peptide 1 receptor (human, UniProt P43220 24-463); assay: cell-based or functional assay
Sequence of human glucagon-like peptide 1 receptor (P43220 24-463): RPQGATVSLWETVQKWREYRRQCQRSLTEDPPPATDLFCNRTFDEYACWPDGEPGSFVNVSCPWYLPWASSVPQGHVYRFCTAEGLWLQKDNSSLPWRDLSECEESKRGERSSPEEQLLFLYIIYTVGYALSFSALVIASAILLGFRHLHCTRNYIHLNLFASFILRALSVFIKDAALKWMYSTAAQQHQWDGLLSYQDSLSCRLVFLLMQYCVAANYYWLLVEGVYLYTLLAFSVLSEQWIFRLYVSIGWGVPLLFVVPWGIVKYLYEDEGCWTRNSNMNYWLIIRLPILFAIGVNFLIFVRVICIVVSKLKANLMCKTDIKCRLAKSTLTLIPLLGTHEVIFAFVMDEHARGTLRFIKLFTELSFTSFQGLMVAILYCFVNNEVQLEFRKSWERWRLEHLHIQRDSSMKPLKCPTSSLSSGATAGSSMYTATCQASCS

Binder | GLUR EC50 (cAMP formation in HEK293 cells expressing human Glucagon-R) (human glucagon receptor) | GLP-1R EC50 (cAMP formation in HEK293 cells expressing human GLP-1-R) [1]
H-HSQGTFTSDYSKYLDDRRARDFIDWLLSA-NH2 [L006-0093] | 0.1 nmol | 0.07 nmol
H-HSQGTFTSDYSKYLDERRAQDFIEWLLSA-NH2 [L006-0082] |  | 0.09 nmol
H-HSQGTFTSDYSKYLDKRRAEDFIKWLLSA-NH2 [L006-0094] | 0.25 nmol | 0.16 nmol
H-HSQGTFTSDYSKYLDSRRAQDFIEWLLSA-NH2 [L006-0090] | 0.22 nmol | 0.15 nmol
H-HSQGTFTSDYSKYLDERRAKDFIQWLLSA-NH2 [L006-0084] | 0.13 nmol | 0.07 nmol
H-HSQGTFTSDYSKYLDSRRAKDFIEWLLSA-NH2 [L006-0081] | 0.23 nmol | 0.14 nmol

Next, values leading:

GLUR EC50 (cAMP formation in HEK293 cells expressing human Glucagon-R) (human glucagon receptor) | GLP-1R EC50 (cAMP formation in HEK293 cells expressing human GLP-1-R) [1] | Binder
0.81 nmol | 0.53 nmol | H-HSQGTFTSDYSKYLDERAAKDFIEWLLSA-NH2 [L006-0108]
0.38 nmol | 0.29 nmol | H-HSQGTFTSDYSKYLDERRAKDFIEWLLRA-NH2 [L006-0138]
0.22 nmol | 0.16 nmol | H-HSQGTFTSDYSKYLDERRAKDFIRWLLSA-NH2 [L006-0128]
0.24 nmol | 0.2 nmol | H-HSQGTFTSDYSKYLDERRAKDFIDWLLSA-NH2 [L006-0129]
0.33 nmol | 0.22 nmol | H-HSQGTFTSDYSKYLDERRAKDFIEWLLAA-NH2 [L006-0136]
